The results in this text go back to article PMC8055034.

Assay [1] deals with 1PGE-THIVC SOSIP.664 gp140 Env trimer (HIV-1 clade C). Kind of assay: negative-stain EM; SEC-purified trimers at 0.01-0.03 mg/ml on carbon-coated grids, 2% uranyl formate, 2D class averages.
The target of assay [2] is VRC01. Kind of assay: D-7324 capture ELISA. As to conditions: value read at the highest antibody concentration, VRC01 10 µg/ml; parent: est. 2.8; read off a plot. (ELISA stands for enzyme-linked immunosorbent assay.)
The target of assay [3] is CD4-IgG2 (UniProt P01730). As to the kind of experiment: D-7324 capture ELISA. As to conditions: value read at the highest concentration, CD4-IgG2 10 µg/ml; parent: est. 2.5; read off a plot.
Assay [4] deals with PGT145. Kind of assay: D-7324 capture ELISA. As to conditions: value read at the highest antibody concentration, PGT145 10 µg/ml; parent: est. 1.3; read off a plot.

Consider “1PGE-THIVC SOSIP.664 gp140 Env trimer (complex)”, for which the stoichiometry N in assay [1] came to 3.
For “1PGE-THIVC SOSIP.664 gp140 Env trimer N279E”, the figures for the response in assay [2], in assay [3] and in assay [4] were 0.93 A450, 0.98 A450 and 1.3 A450, respectively.

As a reminder, the stoichiometry N is the number of molecules, sites or subunits per partner or assembly.
